# Reference: patent publication US20230279118A1 (published 2023)
# Positions count from the first letter of the chain named. Names and notes keep the numbering of the source. Values joined by “and” are separate entries in the source; they are usually repeats but may differ in a detail not shown here. Equal entries are not always repeated.
# B1: canine IgG.B Fc variant D378V with SASA tag (Fc fusion)
# chain: APEMLGGPSVFIFPPKPKDTLLIARTPEVTCVVVDLDPEDPEVQISWFVDGKQMQTAKTQPREEQFNGTYRVVSVLPIGHQDWLKGKQFTCKVNNKALPSPIERTISKARGQAHQPSVYVLPPSREELSKNTVSLTCLIKDFFPPDIVVEWQSNGQQEPESKYRTTPPQLDEDGSYFLYSKLSVDKSRWQRGDTFICAVMHEALHNHYTQESLSHSPGK
# B2: wild-type canine IgG.B Fc (CH2 and CH3 domains) with upstream SASA tag (Fc fusion)
# chain: B1 chain with V148D
# B3: canine IgG.B Fc variant N434A with SASA tag (Fc fusion)
# chain: B1 chain with V148D, N206A
# B4: canine IgG.B Fc variant N434S with SASA tag (Fc fusion)
# chain: B1 chain with V148D, N206S
# B5: canine IgG.B Fc variant N434Y with SASA tag (Fc fusion)
# chain: B1 chain with V148D, N206Y
# B6: canine IgG.B Fc variant N434R with SASA tag (Fc fusion)
# chain: B1 chain with V148D, N206R
# B7: canine IgG.B Fc variant N434W with SASA tag (Fc fusion)
# chain: B1 chain with V148D, N206W
# B8: canine IgG.B Fc variant E380A with SASA tag (Fc fusion)
# chain: B1 chain with V148D, E150A
# B9: canine IgG.B Fc variant N434H with SASA tag (Fc fusion)
# chain: B1 chain with V148D, N206H
# B10: canine IgG.B Fc YTE variant (L252Y/A254T/T256E) with SASA tag (Fc fusion)
# chain: B1 chain with L22Y, A24T, T26E, V148D
# B11: canine IgG.B Fc variant L252Y with SASA tag (Fc fusion)
# chain: B1 chain with L22Y, V148D
# B12: canine IgG.B Fc variant Q311V with SASA tag (Fc fusion)
# chain: B1 chain with Q81V, V148D
# B13: canine IgG.B Fc variant K315A with SASA tag (Fc fusion)
# chain: B1 chain with K85A, V148D
# B14: canine IgG.B Fc variant P307A with SASA tag (Fc fusion)
# chain: B1 chain with P77A, V148D
# B15: canine IgG.B Fc variant T286A with SASA tag (Fc fusion)
# chain: B1 chain with T56A, V148D
# B16: canine IgG.B Fc variant T256A with SASA tag (Fc fusion)
# chain: B1 chain with T26A, V148D
# B17: canine IgG.B Fc variant Q311A with SASA tag (Fc fusion)
# chain: B1 chain with Q81A, V148D
# B18: canine IgG.B Fc variant M428A with SASA tag (Fc fusion)
# chain: B1 chain with V148D, M200A
# B19: canine IgG.B Fc variant Q285A with SASA tag (Fc fusion)
# chain: B1 chain with Q55A, V148D
# B20: canine IgG.B Fc variant Y436A with SASA tag (Fc fusion)
# chain: B1 chain with V148D, Y208A
# B21: canine IgG.B Fc variant L252A with SASA tag (Fc fusion)
# chain: B1 chain with L22A, V148D
# B22: canine IgG.B Fc variant T250A with SASA tag (Fc fusion)
# chain: B1 chain with T20A, V148D
# B23: canine IgG.B Fc variant D378A with SASA tag (Fc fusion)
# chain: B1 chain with V148A
# B24: canine IgG.B Fc variant I308A with SASA tag (Fc fusion)
# chain: B1 chain with I78A, V148D
# B25: canine IgG.B Fc variant G309A with SASA tag (Fc fusion)
# chain: B1 chain with G79A, V148D
# B26: canine IgG.B Fc variant A254S with SASA tag (Fc fusion)
# chain: B1 chain with A24S, V148D
# B27: canine IgG.B Fc variant H433A with SASA tag (Fc fusion)
# chain: B1 chain with V148D, H205A
# B28: canine IgG.B Fc variant L252M with SASA tag (Fc fusion)
# chain: B1 chain with L22M, V148D
# B29: canine IgG.B Fc variant A254T with SASA tag (Fc fusion)
# chain: B1 chain with A24T, V148D
# B30: canine IgG.B Fc variant G309P with SASA tag (Fc fusion)
# chain: B1 chain with G79P, V148D
# B31: canine IgG.B Fc variant T250E with SASA tag (Fc fusion)
# chain: B1 chain with T20E, V148D
# B32: canine IgG.B Fc variant T250Q with SASA tag (Fc fusion)
# chain: B1 chain with T20Q, V148D
# Biological target: T1, canine FcRn (canine)
# T1 construct: Injected in solution as SPR analyte
# Test: SPR, pH 5.5, FcRn 200 nM over captured Fc
Kd,koff,kon,Binder
693 nM and 873 nM,0.159 s⁻¹ and 0.16 s⁻¹,229000 M⁻¹ s⁻¹ and 184000 M⁻¹ s⁻¹,B1
502 nM and 784 nM,0.169 s⁻¹ and 0.207 s⁻¹,336000 M⁻¹ s⁻¹ and 264000 M⁻¹ s⁻¹,B2

# Biological target: T1, canine FcRn
# Test: SPR, pH 5.5, FcRn 200 nM over captured Fc
# Remark: another data set of the same source
Kd,koff,kon,Binder
573 nM and 629 nM,0.156 s⁻¹ and 0.164 s⁻¹,272000 M⁻¹ s⁻¹ and 261000 M⁻¹ s⁻¹,B3
924 nM and 1050 nM,0.207 s⁻¹ and 0.209 s⁻¹,225000 M⁻¹ s⁻¹ and 199000 M⁻¹ s⁻¹,B4
955 nM and 1310 nM,0.181 s⁻¹ and 0.209 s⁻¹,190000 M⁻¹ s⁻¹ and 159000 M⁻¹ s⁻¹,B2
15.9 nM,0.00968 s⁻¹,607000 M⁻¹ s⁻¹,B5
107 nM and 159 nM,0.0524 s⁻¹ and 0.0633 s⁻¹,488000 M⁻¹ s⁻¹ and 399000 M⁻¹ s⁻¹,B6
40.4 nM and 75.7 nM,,,B7

# Biological target: T1, canine FcRn
# Test: SPR, pH 5.5, FcRn 200 nM over captured Fc
# Remark: another data set of the same source
Kd,koff,kon,Binder
1320 nM and 1570 nM,0.223 s⁻¹ and 0.239 s⁻¹,168000 M⁻¹ s⁻¹ and 152000 M⁻¹ s⁻¹,B8
1560 nM and 754 nM,0.179 s⁻¹ and 0.182 s⁻¹,115000 M⁻¹ s⁻¹ and 242000 M⁻¹ s⁻¹,B2

# Biological target: T1, canine FcRn
# Test: SPR, pH 5.5, FcRn 100-800 nM over captured Fc
Kd [nM],koff [s⁻¹],kon [M⁻¹ s⁻¹],Binder
247,0.102,411000,B9
3150,0.527,168000,B2
29.1,0.0151,520000,B5
184,0.046,250000,B10
173,0.0476,275000,B11
182,0.0801,440000,B6
101,0.045,446000,B7

# Biological target: T1, canine FcRn
# Test: SPR, pH 5.5, FcRn 200 nM over captured Fc
# Remark: another data set of the same source
Kd,koff,kon,Binder
639 nM and 692 nM,0.17 s⁻¹ and 0.171 s⁻¹,267000 M⁻¹ s⁻¹ and 247000 M⁻¹ s⁻¹,B2
372 nM and 439 nM,0.566 s⁻¹ and 0.696 s⁻¹,1.52e+06 M⁻¹ s⁻¹ and 1.59e+06 M⁻¹ s⁻¹,B12

# Biological target: T1, canine FcRn
# Test: SPR, pH 5.5, FcRn 400 nM over captured Fc
Kd,koff,kon,Binder
618 nM and 747 nM,0.369 s⁻¹ and 0.18 s⁻¹,598000 M⁻¹ s⁻¹ and 241000 M⁻¹ s⁻¹,B8
422 nM and 548 nM,,,B13
325 nM and 338 nM,,,B14
464 nM and 569 nM,0.196 s⁻¹ and 0.304 s⁻¹,422000 M⁻¹ s⁻¹ and 533000 M⁻¹ s⁻¹,B15
457 nM and 494 nM,0.237 s⁻¹ and 0.477 s⁻¹,518000 M⁻¹ s⁻¹ and 966000 M⁻¹ s⁻¹,B3
447 nM and 298 nM,,,B16
368 nM and 370 nM,0.894 s⁻¹ and 0.496 s⁻¹,2.43e+06 M⁻¹ s⁻¹ and 1.34e+06 M⁻¹ s⁻¹,B17
723 nM and 1670 nM,,234000 M⁻¹ s⁻¹ and 318000 M⁻¹ s⁻¹,B18
341 nM and 257 nM,,,B19
393 nM and 876 nM,0.407 s⁻¹ and 0.213 s⁻¹,,B20
292 nM and 240 nM,,,B21
335 nM and 328 nM,,,B22
673 nM and 592 nM,0.183 s⁻¹ and 0.181 s⁻¹,272000 M⁻¹ s⁻¹ and 306000 M⁻¹ s⁻¹,B23
472 nM and 563 nM,0.169 s⁻¹ and 0.194 s⁻¹,357000 M⁻¹ s⁻¹ and 345000 M⁻¹ s⁻¹,B24
245 nM and 294 nM,,,B25
340 nM and 317 nM,,,B26
266 nM and 359 nM,0.229 s⁻¹ and 0.0997 s⁻¹,,B27

# Biological target: T1, canine FcRn
# Test: SPR, pH 5.5, FcRn 200 nM over captured Fc
# Remark: another data set of the same source
Kd,koff,kon,Binder
1710 nM and 2660 nM,0.288 s⁻¹ and 0.326 s⁻¹,168000 M⁻¹ s⁻¹ and 123000 M⁻¹ s⁻¹,B2
869 nM and 774 nM,0.168 s⁻¹ and 0.169 s⁻¹,193000 M⁻¹ s⁻¹ and 218000 M⁻¹ s⁻¹,B28
98.7 nM and 114 nM,0.0397 s⁻¹ and 0.041 s⁻¹,402000 M⁻¹ s⁻¹ and 358000 M⁻¹ s⁻¹,B11

# Biological target: T1, canine FcRn
# Test: SPR, pH 5.5, FcRn 200 nM over captured Fc
# Remark: another data set of the same source
Kd,koff,kon,Binder
2050 nM and 2990 nM,0.31 s⁻¹ and 0.315 s⁻¹,151000 M⁻¹ s⁻¹ and 105000 M⁻¹ s⁻¹,B2
2290 nM and 1340 nM,0.375 s⁻¹ and 0.433 s⁻¹,163000 M⁻¹ s⁻¹ and 323000 M⁻¹ s⁻¹,B29

# Biological target: T1, canine FcRn
# Test: SPR, pH 5.5, FcRn 200 nM over captured Fc
# Remark: another data set of the same source
Kd,koff,kon,Binder
635 nM and 434 nM and 637 nM and 718 nM,0.239 s⁻¹ and 0.242 s⁻¹ and 0.132 s⁻¹ and 0.145 s⁻¹,377000 M⁻¹ s⁻¹ and 558000 M⁻¹ s⁻¹ and 207000 M⁻¹ s⁻¹ and 202000 M⁻¹ s⁻¹,B30
884 nM and 862 nM,0.21 s⁻¹ and 0.218 s⁻¹,237000 M⁻¹ s⁻¹ and 253000 M⁻¹ s⁻¹,B2

# Biological target: T1, canine FcRn
# Test: SPR, pH 5.5, FcRn 400 nM over captured Fc; average of the wild type replicates
row,Kd [nM],Binder
1,566,B2

# Biological target: T1, canine FcRn
# Test: SPR, pH 5.5, FcRn 200 nM over captured Fc
# Remark: another data set of the same source
Kd,koff,kon,Binder
2480 nM and 1660 nM,0.284 s⁻¹ and 0.287 s⁻¹,114000 M⁻¹ s⁻¹ and 172000 M⁻¹ s⁻¹,B31
8990 nM and 3110 nM,0.347 s⁻¹ and 0.354 s⁻¹,38700 M⁻¹ s⁻¹ and 114000 M⁻¹ s⁻¹,B2
2590 nM and 2840 nM,0.258 s⁻¹ and 0.268 s⁻¹,99600 M⁻¹ s⁻¹ and 94300 M⁻¹ s⁻¹,B32
